T1: recombinant, untagged TNF-gamma-beta protein (aa 72-251) from E. coli (human, UniProt O95150 72-251)
T1 construct: Purified from E. coli
T1 sequence (looked up): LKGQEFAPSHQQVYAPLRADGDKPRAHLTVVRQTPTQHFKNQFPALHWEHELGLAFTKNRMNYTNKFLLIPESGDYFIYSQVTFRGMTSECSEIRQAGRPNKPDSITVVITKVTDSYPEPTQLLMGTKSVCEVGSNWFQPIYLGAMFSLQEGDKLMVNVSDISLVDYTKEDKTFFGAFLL

T2: non-tagged form of TR6 (UniProt O95407 30-300)
T2 construct: also called TNFR-6 alpha; DcR3
T2 sequence (looked up): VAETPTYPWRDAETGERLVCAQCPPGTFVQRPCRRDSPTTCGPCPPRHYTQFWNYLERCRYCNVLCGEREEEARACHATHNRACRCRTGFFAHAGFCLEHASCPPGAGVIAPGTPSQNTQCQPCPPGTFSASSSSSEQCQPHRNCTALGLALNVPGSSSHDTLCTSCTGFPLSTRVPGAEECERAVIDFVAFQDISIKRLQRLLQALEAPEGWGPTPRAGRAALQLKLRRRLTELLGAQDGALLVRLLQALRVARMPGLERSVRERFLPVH

T3: Fc-fusion form of the extracellular domain of DR6 (UniProt O75509 42-349, limits assumed)
T3 construct: extracellular domain; not shown: Fc
T3 sequence (looked up): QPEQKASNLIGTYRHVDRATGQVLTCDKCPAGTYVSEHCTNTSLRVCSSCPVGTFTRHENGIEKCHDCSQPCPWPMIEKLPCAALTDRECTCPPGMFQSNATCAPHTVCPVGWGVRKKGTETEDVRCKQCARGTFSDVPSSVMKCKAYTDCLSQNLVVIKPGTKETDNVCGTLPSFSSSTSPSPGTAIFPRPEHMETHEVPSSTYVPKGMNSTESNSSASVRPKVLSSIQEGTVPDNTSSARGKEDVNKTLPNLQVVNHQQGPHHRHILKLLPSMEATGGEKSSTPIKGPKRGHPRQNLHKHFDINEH

T4: FADD (UniProt Q13158 1-208)
T4 construct: 35S-labeled by in vitro transcription-translation for the GST pull-down; also called AU1-FADD; FADD/MORT1
T4 sequence (looked up): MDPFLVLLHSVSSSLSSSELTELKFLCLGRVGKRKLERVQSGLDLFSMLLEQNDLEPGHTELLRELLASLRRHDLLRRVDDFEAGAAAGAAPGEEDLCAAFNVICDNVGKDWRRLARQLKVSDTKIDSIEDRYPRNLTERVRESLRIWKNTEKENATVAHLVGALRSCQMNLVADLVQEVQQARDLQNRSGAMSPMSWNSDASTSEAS

T5: RIP (UniProt Q13546 1-671, limits assumed)
T5 construct: 35S-labeled by in vitro translation for the GST pull-down; also called myc-RIP
T5 sequence (looked up): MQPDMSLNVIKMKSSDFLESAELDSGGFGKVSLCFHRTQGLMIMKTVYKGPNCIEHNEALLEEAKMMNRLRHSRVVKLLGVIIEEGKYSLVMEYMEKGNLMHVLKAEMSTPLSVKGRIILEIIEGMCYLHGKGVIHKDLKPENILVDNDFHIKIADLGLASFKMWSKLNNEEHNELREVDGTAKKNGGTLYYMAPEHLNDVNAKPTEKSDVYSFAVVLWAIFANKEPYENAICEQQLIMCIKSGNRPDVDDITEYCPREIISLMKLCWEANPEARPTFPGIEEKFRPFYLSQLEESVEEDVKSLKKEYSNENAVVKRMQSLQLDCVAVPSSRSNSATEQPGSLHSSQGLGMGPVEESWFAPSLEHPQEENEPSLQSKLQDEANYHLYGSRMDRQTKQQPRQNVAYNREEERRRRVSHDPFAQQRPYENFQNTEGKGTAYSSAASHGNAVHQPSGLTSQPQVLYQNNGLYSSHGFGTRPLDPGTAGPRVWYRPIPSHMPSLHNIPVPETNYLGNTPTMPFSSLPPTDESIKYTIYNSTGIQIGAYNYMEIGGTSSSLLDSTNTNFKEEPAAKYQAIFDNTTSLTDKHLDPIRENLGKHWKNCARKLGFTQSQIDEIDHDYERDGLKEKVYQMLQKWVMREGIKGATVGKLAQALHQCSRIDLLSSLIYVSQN

B1: full length TNF-gamma-beta expressed on the cell surface (ligand, human, UniProt O95150 1-251, looked up)
chain: MAEDLGLSFGETASVEMLPEHGSCRPKARSSSARWALTCCLVLLPFLAGLTTYLLVSQLRAQGEACVQFQALKGQEFAPSHQQVYAPLRADGDKPRAHLTVVRQTPTQHFKNQFPALHWEHELGLAFTKNRMNYTNKFLLIPESGDYFIYSQVTFRGMTSECSEIRQAGRPNKPDSITVVITKVTDSYPEPTQLLMGTKSVCEVGSNWFQPIYLGAMFSLQEGDKLMVNVSDISLVDYTKEDKTFFGAFLL
notes: whole, on cells; also called TNF-gamma-beta expressing cells

Legend:
[1] = molecular target: B1; test: flow cytometry on HEK293F stable transfectants expressing full length TNF-gamma-beta
Experimental: (§1) TR6 has been previously described as a decoy receptor (Pitti et al., Nature 396:699-703 (1998); Yu et al., J. Biol Chem. 274:13733-6 (1999)) capable of competing with Fas and HveA for binding of FasL and LIGHT, respectively.
(§2) One million cells, in 0.1 ml of FACS buffer (PBS, 0.1% BSA, 0.1% NaN₃), were incubated with 0.1-1 microgram of protein or antibody at RT for 15 min. The cells were washed with 3 ml of FACS buffer, reacted with biotinylated primary antibody, and stained with PE-conjugated secondary antibody at RT for 15 min. Cells were then washed again, resuspended in 0.5 microgram/ml of propidium iodide, and live cells were gated and analyzed on a FACScan using the CellQuest software (BD Biosciences).

[2] = molecular target: T1, recombinant, untagged TNF-gamma-beta …; test: BIAcore 3000 (SPR), DR3-Fc amine-coupled to CM5 chip, three batches of TNF-gamma-beta, 1:1 binding model; DR3-Fc; average of three batches of TNF-gamma-beta
Experimental: (§3) TNFR-Fc were covalently immobilized to the BIAcore sensor chip (CM5 chip) via amine groups using N-ethyl-N′-(dimethylaminopropyl) carbodiimide/N-hydroxysuccinimide chemistry. […] The amount of bound protein was determined during washing of the flow cell with HBS buffer (10 mM HEPES, pH 7.4, 150 mM NaCl, 3.4 mM EDTA, 0.005% Surfactant P20). The flow cell surface was regenerated by displacing bound protein by washing with 20 microliters of 10 mM glycine-HCl, pH 2.3. For kinetic analysis, the on and off rates were determined using the kinetic evaluation program in BIAevaluation 3 software using a 1:1 binding model and the global analysis method.

[3] = molecular target: T1, recombinant, untagged TNF-gamma-beta …; test: BIAcore 3000 (SPR), DR3-Fc amine-coupled to CM5 chip, TNF-gamma-beta 3-370 nM in flow, 1:1 binding model; DR3-Fc on the chip
Experimental: as §3

non-tagged form of TR6 = molecular target: T2, non-tagged form of TR6; test: flow cytometry, competition with DR3-Fc for TNF-gamma-beta on HEK293F cells
Experimental: as §1, §2

[4] = molecular target: T3, Fc-fusion form of the extracellular …; test: flow cytometry on HEK293F stable transfectants expressing full length TNF-gamma-beta
Experimental: as §1, §2

FADD = molecular target: T4, FADD; test: GST pull-down of in vitro translated 35S-labeled protein, SDS-PAGE and autoradiography
Experimental: (§4) In vitro binding experiments were performed as described previously (A. M. Chinnaiyan et al., Cell 81: 505-12 (1995); M. P. Boldin et al., J Biol Chem 270: 7795-8 (1995); F. C. Kischkel etal., EMBO 14: 5579-5588 (1995)). […] Following translation, equal amounts of total ³⁵S-labeled reticulocyte lysate were diluted into 150 μl GST binding buffer (50 mM Tris, pH 7.6,120 mM NaCl, 1% NP-40) and incubated for 2 hrs. at 4° C. with the various GST fusion proteins complexed to beads, following the beads were pelleted by plus centrifugation, washed three times in GST buffer, boiled in SDS-sample buffer and resolved on a 12.5% SDS-PAGE. Bound proteins were visualized following autoradioraphy at −80° C. […] After the beads were washed, retained proteins were analyzed by SDS-PAGE and autoradiography. The gel was Coomassie stained to monitor equivalency of loading.
(§5) As an initial screen, in vitro translated radiolabeled DAMs were precipitated with various glutathione S-transferase (GST) fusion proteins immobilized on glutathione-Sepharose beads.

RIP = molecular target: T5, RIP; test: as above
Experimental: as §4, §5

binding result [1]	Binder	also measured
no binding	Fc-fusion form of the extracellular domain of AITR (Fc fusion, UniProt Q9Y5U5 26-162, looked up, extracellular domain; not shown: Fc) QRPTGGPGCGPGRLLLGTGTDARCCRVHTTRCCRDYPGEECCSEWDCMCVQPEFHCGDPCCTTCRHHPCPPGQGVQSQGKFSFGFQCIDCASGTFSGGHEGHCKPWTDCTQFGFLTVFPGNKTHNAVCVPGSPPAEP	–
no binding	Fc-fusion form of the extracellular domain of OPG (Fc fusion, UniProt O00300 22-194, looked up, extracellular domain; not shown: Fc) ETFPPKYLHYDEETSHQLLCDKCPPGTYLKQHCTAKWKTVCAPCPDHYYTDSWHTSDECLYCSPVCKELQYVKQECNRTHNRVCECKEGRYLEIEFCLKHRSCPPGFGVVQAGTPERNTVCKRCPDGFFSNETSSKAPCRKHTNCSVFGLLLTQKGNATHDNICSGNSESTQK	–
no binding	Fc-fusion form of the extracellular domain of DcR1 (Fc fusion, UniProt O14798 26-221, looked up, extracellular domain; not shown: Fc) ATTARQEEVPQQTVAPQQQRHSFKGEECPAGSHRSEHTGACNPCTEGVDYTNASNNEPSCFPCTVCKSDQKHKSSCTMTRDTVCQCKEGTFRNENSPEMCRKCSRCPSGEVQVSNCTSWDDIQCVEEFGANATVETPAAEETMNTSPGTPAPAAEETMNTSPGTPAPAAEETMTTSPGTPAPAAEETMTTSPGTPA	–
no binding	Fc-fusion form of the extracellular domain of OX40 (Fc fusion, UniProt P43489 29-214, looked up, extracellular domain; not shown: Fc) LHCVGDTYPSNDRCCHECRPGNGMVSRCSRSQNTVCRPCGPGFYNDVVSSKPCKPCTWCNLRSGSERKQLCTATQDTVCRCRAGTQPLDSYKPGVDCAPCPPGHFSPGDNQACKPWTNCTLAGKHTLQPASNSSDAICEDRDPPATQPQETQGPPARPITVQPTEAWPRTSQGPSTRPVEVPGGRA	–
–	extracellular domain of human DR3 (aa 1-199) fused at its C-terminus to the Fc domain of human IgG1 (Fc fusion, not shown: a dimerising Fc or GST, also called DR3-Fc; DR3.Fc) QGGTRSPRCDCAGDFHKKIGLFCCRGCPAGHYLKAPCTEPCGNSTCLVCPQDTFLAWENHHNSECARCQACDEQASQVALENCSAVADTRCGCKPGWFVECQVSQCVSSSPFYCQPCLDCGALHRHTRLLCSRRDTDCGTCLPGFYEHGDGCVSCPTSTLGSCPERCAAVCGWRQ	Kd [2]: 6.45 nM; koff [3]: 0.00413 s⁻¹; kon [3]: 639000 M⁻¹ s⁻¹
no binding	Fc-fusion form of the extracellular domain of TNFR1 (Fc fusion, UniProt P19438 30-211, looked up, extracellular domain; also called TNFR1-Fc; TNFRI.Fc; not shown: Fc) LVPHLGDREKRDSVCPQGKYIHPQNNSICCTKCHKGTYLYNDCPGPGQDTDCRECESGSFTASENHLRHCLSCSKCRKEMGQVEISSCTVDRDTVCGCRKNQYRHYWSENLFQCFNCSLCLNGTVHLSCQEKQNTVCTCHAGFFLRENECVSCSNCKKSLECTKLCLPQIENVKGTEDSGTT	–
–	B1	binding result (non-tagged form of TR6): binds; binding result [4]: no binding
no binding	Fc-fusion form of the extracellular domain of DcR2 (Fc fusion, UniProt Q9UBN6 56-211, looked up, extracellular domain; not shown: Fc) ATIPRQDEVPQQTVAPQQQRRSLKEEECPAGSHRSEYTGACNPCTEGVDYTIASNNLPSCLLCTVCKSGQTNKSSCTTTRDTVCQCEKGSFQDKNSPEMCRTCRTGCPRGMVKVSNCTPRSDIKCKNESAASSTGKTPAAEETVTTILGMLASPYH	–
no binding	Fc-fusion form of the extracellular domain of RANK (Fc fusion, UniProt Q9Y6Q6 30-212, looked up, extracellular domain; not shown: Fc) IAPPCTSEKHYEHLGRCCNKCEPGKYMSSKCTTTSDSVCLPCGPDEYLDSWNEEDKCLLHKVCDTGKALVAVVAGNSTTPRRCACTAGYHWSQDCECCRRNTECAPGLGAQHPLQLNKDTVCKPCLAGYFSDAFSSTDKCRPWTNCTFLGKRVEHHGTEKSDAVCSSSLPARKPPNEPHVYLP	–
–	GST fusion of the cytoplasmic domain of DR3 (amino acid residues 215-393 (SEQ ID NO:4)) (other, Made in E. coli BL21 (DE3) pLysS and immobilized on glutathione-agarose beads; The results paragraph calls it GST-DDCR (DDCR is the former name of DR3); also called GST-DR3; GST-DDCR; not shown: glutathione S-transferase from vector pGSTag) AGMEALTPPPATHLSPLDSAHTLLAPPDSSEKICTVQLVGNSWTPGYPETQEALCPQVTWSWDQLPSRALGPAAAPTLSPESPAGSPAMMLQPGPQLYDVMDAVPARRWKEFVRTLGLREAEIEAVEVEIGRFRDQQYEMLKRWRQQQPAGLGAVYAALERMGLDGCVEDLRSRLQRGP	binding result (FADD): no binding; binding result (RIP): no binding

— US20030170203A1 (Human Genome Sciences, published 2003)
